Results on 1 protein are retold here after US20160145654.

The data set concerns the target IL-2-phaP fusion polypeptide on the surface of polymer particles (PHA granules), P04351.

Chain of IL-2-phaP fusion polypeptide on the surface of polymer particles (PHA granules), P04351 (P04351 whole entry, looked up, the tested form may be a part): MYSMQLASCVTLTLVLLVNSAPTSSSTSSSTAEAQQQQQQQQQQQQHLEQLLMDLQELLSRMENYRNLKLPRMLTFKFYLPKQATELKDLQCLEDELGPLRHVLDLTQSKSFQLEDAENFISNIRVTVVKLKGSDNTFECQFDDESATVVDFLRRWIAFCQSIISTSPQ

B1: bovine enterokinase (protein)
chain: IVGGSDSREGAWPWVVALYFDDQQVCGASLVSRDWLVSAAHCVYGRNMEPSKWKAVLGLHMASNLTSPQIETRLIDQIVINPHYNKRRKNNDIAMMHLEMKVNYTDYIQPICLPEENQVFPPGRICSIAGWGALIYQGSTADVLQEADVPLLSNEKCQQQMPEYNITENMVCAGYEAGGVDSCQGDSGGPLMCQENNRWLLAGVTSFGYQCALPNRPGVYARVPRFTEWIQSFLH
With B1, the “fluorescence of IL-2-phaP particles stained with anti-IL-2-PE after 1 hr incubation with enterokinase (FACS)” value was “a smaller shift in fluorescence intensity indicates that a proportion of IL-2 has been cleaved from the particles” and the “fluorescence of IL-2-phaP particles stained with anti-IL-2-PE after 16 hours incubation with enterokinase (FACS)” value is “no IL-2 is detectable on the surface of the polymer particles, indicating the IL-2 has been cleaved from the polymer particles”.
